B1: Pistol ribozyme (parent)
chain: GGGUCGUUGUUCCAUAAUCGCGUGGAUAUGGCACGCAAGUUUCUACCGGGCACCGUAAAUGUCCGACUGGAGCCGUUCGGGCGGCUAUAAACAGACCUCAGGCCCGAAGCGUGGCGGCACCUGCCGCCGGUGGUAAAAAAGAUCGGAAGAGCACACGUCU

Variants of: B1
Assay: aptazyme ON/OFF ratio, guanine; higher = stronger switching; co-transcriptional cleavage with and without guanine

Variant | aptazyme ON/OFF ratio
U8G G9A U10C U11A C12A | 1.22
U7C G9A U10A U11C C13A | 1.03
U7G U8G G9C U10G U11G C12U C13A | 1.14
U7G U8A G9A U11G C12U C13U | 1.45
G9A U11A C12A C13A | 1.33
U7G U8A G9U U10A U11G C12G C13A | 1.13
U7A G9C U11A C13U | 1.07
U7C U8C G9C U11A C13G | 1.09
U8C G9C U10C U11A C12G C13U | 1.1
U8A G9A C12A | 1.34
U7A U8G G9A U11G C12A C13A | 1.16
U8C G9C U10G U11C | 1.12
U7C U8C U10A U11C C12U C13A | 1.08
U7A U8C G9U U10A C12U C13U | 1.42
U7C U8G G9U U11A C12A C13U | 1.21
U8C G9C U10G U11A C13G | 1.19
U7A U8G G9U U10A U11C C12A C13G | 1.2
U7C U8G U10C C12U C13A | 1.61
U11G C13G | 1.03
U7A U8A G9U U10A U11A C13G | 1.07
U8A G9U U10G C12G C13A | 1.29

Variant | aptazyme ON/OFF ratio
U7G U8G G9C U10G U11A C12U C13G | 1.1
U7A G9U U10C U11C C12U C13U | 1.07
U7G G9C U11C C12U | 2.15
U7C U8A G9A U10G U11G C12U C13A | 1.11
U8G G9C U10G U11G C13G | 1.12
U10C U11C C12G C13G | 1.16
U7C U8C G9U U10C C12G | 1.22
U7G U8C G9U U10G U11A C13G | 1.07
U7G U8G G9C U10G U11G C12A C13U | 1.09
U7A U8G G9C U10C U11A C12G C13U | 1.17
U8G U10A C12U C13G | 1.32
U7G U10A C12G | 1.22
U7G U8C G9U U10G U11G C12A C13A | 1.11
U7A G9A U10G C12A C13A | 1.17
U8A G9U U11A C12U | 1.47
U8G G9A U10A | 1.24
U7C U8A G9U U10A | 1.16
U7G U8G G9A U10A U11G C13G | 1.16
U7C U8A U10A U11G C12A | 1.06
U7G U8G U10G U11G | 1.39
U7C U8C G9A U10G U11G C12G | 1.16

Variant | aptazyme ON/OFF ratio
U8G G9A U10A C12U C13A | 1.15
U7A G9A C12G | 2.38
G9U U10A U11C C12A C13A | 1.06
U7G U8A G9U U11C C12U C13G | 1.15
U8A U10C U11G C12G C13G | 1.26
U8C U10C U11A | 1.63
U7G U8G G9A C12A C13G | 1.11
U8A G9A U11C C12A C13G | 1.23
U8C G9U C12U C13U | 0.959
U7C G9C U10C U11A C12A | 1.09
U7A G9A U10C U11A C13U | 1.19
U7G U8C U10A U11C C12G C13A | 1.11
U8C G9C U10A U11C C12A C13A | 1.27
U7A U10A U11G C13U | 1.19
U7C U8C G9C U10C U11G C12A C13G | 1.04
U7A U8G U10G C12A C13G | 1.12
G9C U10A U11C | 1.06
U7G U8G G9C U10A U11A C12A C13G | 1.04
U8A G9U U10G C12A C13U | 1.5
U8G G9C U10A U11A C12A | 1.18
U7C U8C G9C U10G U11G C13A | 1.06

Variant | aptazyme ON/OFF ratio
U7G G9U U10A C12G | 1.59
U7G U8C U10A U11G C13A | 1.22
U7A U8G G9A U10C U11A C12G | 1.13
U7C U8C G9U U11G C12A | 1.19
U7G U8G G9A U10C C12U C13G | 1.18
U7G U8A G9C U10A U11A C12G C13A | 1.04
U7G G9A C12G | 1.2
U7G U8C G9C U11A C13U | 1.18
U7G U8A G9U U10G C12A C13A | 1.11
U7C G9C U10A C12A C13G | 1.09
U7G U8A G9U U10G U11G C13A | 1.3
U7A U8G G9C U11A C12G C13G | 1.35
U7G G9C U10G U11A C12U C13U | 1.23
U7G G9C U10A U11A C13A | 1.31
U7C G9C U10G U11G C12G C13G | 1.11
U8C G9A U10G U11G C13U | 1.09
U8C G9A U11G C12G C13A | 1.19
U7A U8A G9A C12U | 1.32
U7A U8A G9C U10A C12U | 1.15
U8A U10G U11A C12G C13G | 1.51
U7G U8G U10A U11G C12U | 1.38
